Laboratory results as given in US20160193299A1, “MODIFIED NUCLEOSIDE, NUCLEOTIDE, AND NUCLEIC ACID COMPOSITIONS” (Moderna Therapeutics, Inc., priority 2011, published 2016).

Experiments:
G-CSF [1] = test: Example 17 LNP in vivo study IV/IM/SC, serum G-CSF ELISA; settings: rats, 0.05 mg/kg
Experimental: Formulations, listed in Table 31, were characterized by particle size, zeta potential, and encapsulation.
LNP formulations, shown in Table 31 (above), were administered to rats (n=5) intravenously (IV), intramuscularly (IM) or subcutaneously (SC) at a single modified mRNA dose of 0.05 mg/kg. A control group of rats (n=4) was untreated. […] The rats administered EPO modified mRNA intravenously were also bled at 7 days.

reticulocytes = test: Example 22 non-human primate study, reticulocyte count; format: in vivo, cynomolgus monkey
Experimental: (§1) LNP formulations, shown in Table 31 (above), were administered to non-human primates (NHP) (cynomolgus monkey) (n=2) as intravenous injection (IV). The NHP were administered a single modified mRNA IV dose of 0.5 mg/kg, 0.05 mg/kg or 0.005 mg/kg of G-CSF or EPO in a dose volume of 0.5 mL/kg. The NHPs were bled before dosing with the modified mRNA LNP formulations to determine protein expression in the serum and a baseline complete blood count. After administration with the G-CSF modified mRNA formulation the NHP were bled at 8, 24, 48 and 72 hours to determined protein expression. After administration with the EPO modified mRNA formulation the NHP were bled at 8, 24, 48, 72 hours and 7 days to determined protein expression.
Samples collected from the NHPs after they were administered with G-CSF or EPO modified mRNA formulations were analyzed by ELISA to determine protein expression. Neutrophil and reticulocyte count was also determined pre-dose, 24 hours, 3 days, 7 days, 14 days and 18 days after administration of the modified G-CSF or EPO formulation.

[2] = test system: aspartate transaminase (AST); test: Example 22 non-human primate study, serum chemistry aspartate transaminase (AST); format: in vivo, cynomolgus monkey
Experimental: as §1

neutrophil count = test: Example 40 multi-site IM and SC administration of G-CSF mRNA, neutrophil count; format: in vivo; settings: mice, intramuscular, day 3
Experimental: Injection of four doses or 2×50 ug (two sites) daily for three days (24 hrs interval) was performed. The fourth dose was administered 6 hrs before blood collection and CBC analysis. […] The mice were bled at 72 hours after the first mRNA injection (6 hours after the last mRNA dose) to determine the effect of mRNA-encoded human G-CSF on the neutrophil count. The dosing regimen is shown in Table 63 as are the resulting neutrophil counts (thousands/uL). In Table 63, an asterisks (*) indicate statistical significance at p<0.05.

human G-CSF = test: Example 42A saline formulation IM, serum human G-CSF; format: in vivo, mice; settings: G-CSF group: human G-CSF in mouse serum, IM 100 ug, 13 hours
Experimental: The mice were bled at 13 hours after the injection to determine the concentration of the human polypeptide in serum in pg/mL (G-CSF groups measured human G-CSF in mouse serum and EPO groups measured human EPO in mouse serum).

IFN-alpha = test: Example 45 cytokine study in PBMC, IFN-alpha ELISA; format: cell-based, human; settings: human PBMC, Lipofectamine 2000
Experimental: The plates were then incubated at 37 C.
Each condition was done in duplicate.
Shown in Tables 69 and 70 are the average from 2 separate PBMC donors of the G-CSF and IFN-alpha production over time as measured by specific ELISA.

G-CSF [3] = test: Example 16 lipid nanoparticle in vivo study, serum G-CSF ELISA; design: species or system mice; settings: 100 ug

B1: G-CSF: human G-CSF mRNA SEQ ID NO: 6, polyA ~160 nt, Cap1, fully modified with 5-methylcytosine and pseudouridine (nucleic acid, listed as Homo sapiens)
chain: GGGAAAUAAGAGAGAAAAGAAGAGUAAGAAGAAAUAUAAGAGCCACCAUGGCCGGUCCCGCGACCCAAAGCCCCAUGAAACUUAUGGCCCUGCAGUUGCUGCUUUGGCACUCGGCCCUCUGGACAGUCCAAGAAGCGACUCCUCUCGGACCUGCCUCAUCGUUGCCGCAGUCAUUCCUUUUGAAGUGUCUGGAGCAGGUGCGAAAGAUUCAGGGCGAUGGAGCCGCACUCCAAGAGAAGCUCUGCGCGACAUACAAACUUUGCCAUCCCGAGGAGCUCGUACUGCUCGGGCACAGCUUGGGGAUUCCCUGGGCUCCUCUCUCGUCCUGUCCGUCGCAGGCUUUGCAGUUGGCAGGGUGCCUUUCCCAGCUCCACUCCGGUUUGUUCUUGUAUCAGGGACUGCUGCAAGCCCUUGAGGGAAUCUCGCCAGAAUUGGGCCCGACGCUGGACACGUUGCAGCUCGACGUGGCGGAUUUCGCAACAACCAUCUGGCAGCAGAUGGAGGAACUGGGGAUGGCACCCGCGCUGCAGCCCACGCAGGGGGCAAUGCCGGCCUUUGCGUCCGCGUUUCAGCGCAGGGCGGGUGGAGUCCUCGUAGCGAGCCACCUUCAAUCAUUUUUGGAAGUCUCGUACCGGGUGCUGAGACAUCUUGCGCAGCCGUGAAGCGCUGCCUUCUGCGGGGCUUGCCUUCUGGCCAUGCCCUUCUUCUCUCCCUUGCACCUGUACCUCUUGGUCUUUGAAUAAAGCCUGAGUAGGAAG
modifications: polyA ~160, Cap1, 5mC/pseudouridine modified
For B1, the “G-CSF Serum Concentration” value (G-CSF [1]; IM, 2 hours) was 1620.4 pg/mL, the “G-CSF Serum Concentration” value (G-CSF [1]; IM, 8 hours) was 7910.4 pg/mL and the “G-CSF Serum Concentration” value (G-CSF [1]; IM, 24 hours) was 893.3 pg/mL. The “G-CSF Serum Concentration” value (G-CSF [1]; IM, 48 hours) was “OSC”, the “G-CSF Serum Concentration” value (G-CSF [1]; IM, 5 days) was “OSC” and the “G-CSF detectable to” value (G-CSF [1]; IV) was 7 days. The “G-CSF Serum Concentration” value (G-CSF [1]; IV, 2 hours) was 31,331.9 pg/ml, the “G-CSF Serum Concentration” value (G-CSF [1]; IV, 8 hours) was 70,532.4 pg/ml and the “G-CSF Serum Concentration” value (G-CSF [1]; IV, 24 hours) was 5,738.6 pg/ml. For the same molecule, the “G-CSF Serum Concentration” value (G-CSF [1]; IV, 48 hours) was 233.8 pg/mL, the “G-CSF Serum Concentration” value (G-CSF [1]; IV, 5 days) was 60.4 pg/mL and the “G-CSF Serum Concentration” value (G-CSF [1]; SC, 2 hours) was 80.3 pg/mL. For the same molecule, the “G-CSF Serum Concentration” value (G-CSF [1]; SC, 8 hours) was 164.2 pg/mL, the “G-CSF Serum Concentration” value (G-CSF [1]; SC, 24 hours) was “OSC” and the “G-CSF Serum Concentration” value (G-CSF [1]; SC, 48 hours) was “OSC”. For the same molecule, the “G-CSF Serum Concentration” value (G-CSF [1]; SC, 5 days) was “OSC”, the “G-CSF detectable to at least” value (G-CSF [1]; subcutaneous and intramuscular) was “at least 8 hours” and the Reticulocyte count (reticulocytes; Table 39, Female NHP, 0.005 mg/kg, 14/18 days) was 0.057 10^12/L. For the same molecule, the Reticulocyte count (reticulocytes; Table 39, Female NHP, 0.005 mg/kg, 24 hours) was 0.07 10^12/L, the Reticulocyte count (reticulocytes; Table 39, Female NHP, 0.005 mg/kg, 3 days) was 0.054 10^12/L and the Reticulocyte count (reticulocytes; Table 39, Female NHP, 0.005 mg/kg, 7 days) was 0.066 10^12/L. For the same molecule, the Reticulocyte count (reticulocytes; Table 39, Female NHP, 0.005 mg/kg, Pre-dose) was 0.06 10^12/L, the Reticulocyte count (reticulocytes; Table 39, Female NHP, 0.05 mg/kg, 14/18 days) was 0.06 10^12/L and the Reticulocyte count (reticulocytes; Table 39, Female NHP, 0.05 mg/kg, 24 hours) was 0.046 10^12/L. For the same molecule, the Reticulocyte count (reticulocytes; Table 39, Female NHP, 0.05 mg/kg, 3 days) was 0.061 10^12/L, the Reticulocyte count (reticulocytes; Table 39, Female NHP, 0.05 mg/kg, 7 days) was 0.094 10^12/L and the Reticulocyte count (reticulocytes; Table 39, Female NHP, 0.05 mg/kg, Pre-dose) was 0.049 10^12/L. The Reticulocyte count (reticulocytes; Table 39, Female NHP, 0.5 mg/kg, 14/18 days) was 0.071 10^12/L, the Reticulocyte count (reticulocytes; Table 39, Female NHP, 0.5 mg/kg, 24 hours) was 0.046 10^12/L and the Reticulocyte count (reticulocytes; Table 39, Female NHP, 0.5 mg/kg, 3 days) was 0.017 10^12/L. For the same molecule, the Reticulocyte count (reticulocytes; Table 39, Female NHP, 0.5 mg/kg, 7 days) was 0.021 10^12/L, the Reticulocyte count (reticulocytes; Table 39, Female NHP, 0.5 mg/kg, Pre-dose) was 0.055 10^12/L and the Reticulocyte count (reticulocytes; Table 39, Male NHP, 0.005 mg/kg, 14/18 days) was 0.069 10^12/L. The Reticulocyte count (reticulocytes; Table 39, Male NHP, 0.005 mg/kg, 24 hours) was 0.037 10^12/L, the Reticulocyte count (reticulocytes; Table 39, Male NHP, 0.005 mg/kg, 3 days) was 0.037 10^12/L and the Reticulocyte count (reticulocytes; Table 39, Male NHP, 0.005 mg/kg, 7 days) was 0.046 10^12/L. For the same molecule, the Reticulocyte count (reticulocytes; Table 39, Male NHP, 0.005 mg/kg, Pre-dose) was 0.037 10^12/L, the Reticulocyte count (reticulocytes; Table 39, Male NHP, 0.05 mg/kg, 14/18 days) was 0.107 10^12/L and the Reticulocyte count (reticulocytes; Table 39, Male NHP, 0.05 mg/kg, 24 hours) was 0.048 10^12/L. The Reticulocyte count (reticulocytes; Table 39, Male NHP, 0.05 mg/kg, 3 days) was 0.101 10^12/L, the Reticulocyte count (reticulocytes; Table 39, Male NHP, 0.05 mg/kg, 7 days) was 0.157 10^12/L and the Reticulocyte count (reticulocytes; Table 39, Male NHP, 0.05 mg/kg, Pre-dose) was 0.055 10^12/L. For the same molecule, the Reticulocyte count (reticulocytes; Table 39, Male NHP, 0.5 mg/kg, 14/18 days) was 0.029 10^12/L, the Reticulocyte count (reticulocytes; Table 39, Male NHP, 0.5 mg/kg, 24 hours) was 0.032 10^12/L and the Reticulocyte count (reticulocytes; Table 39, Male NHP, 0.5 mg/kg, 3 days) was 0.041 10^12/L. For the same molecule, the Reticulocyte count (reticulocytes; Table 39, Male NHP, 0.5 mg/kg, 7 days) was 0.009 10^12/L, the Reticulocyte count (reticulocytes; Table 39, Male NHP, 0.5 mg/kg, Pre-dose) was 0.067 10^12/L and the AST ([2]; Female NHP, 0.005 mg/kg, 2 days) was 34 U/L. For the same molecule, the AST ([2]; Female NHP, 0.005 mg/kg, 4 days) was 36 U/L, the AST ([2]; Female NHP, 0.005 mg/kg, 7 days) was 31 U/L and the AST ([2]; Female NHP, 0.005 mg/kg, 14 days) was 20 U/L. It also gave an AST ([2]; Female NHP, 0.005 mg/kg, Pre-dose) of 54 U/L, an AST ([2]; Female NHP, 0.05 mg/kg, 2 days) of 34 U/L and an AST ([2]; Female NHP, 0.05 mg/kg, 4 days) of 42 U/L. For the same molecule, the AST ([2]; Female NHP, 0.05 mg/kg, 7 days) was 52 U/L, the AST ([2]; Female NHP, 0.05 mg/kg, 14 days) was 20 U/L and the AST ([2]; Female NHP, 0.05 mg/kg, Pre-dose) was 33 U/L. For the same molecule, the AST ([2]; Female NHP, 0.5 mg/kg, 2 days) was 294 U/L, the AST ([2]; Female NHP, 0.5 mg/kg, 4 days) was 63 U/L and the AST ([2]; Female NHP, 0.5 mg/kg, 7 days) was 68 U/L. The AST ([2]; Female NHP, 0.5 mg/kg, 14 days) was 67 U/L, the AST ([2]; Female NHP, 0.5 mg/kg, Pre-dose) was 47 U/L and the AST ([2]; Male NHP, 0.005 mg/kg, 2 days) was 70 U/L. The AST ([2]; Male NHP, 0.005 mg/kg, 4 days) was 39 U/L, the AST ([2]; Male NHP, 0.005 mg/kg, 7 days) was 28 U/L and the AST ([2]; Male NHP, 0.005 mg/kg, 14 days) was 39 U/L. It also gave an AST ([2]; Male NHP, 0.005 mg/kg, Pre-dose) of 35 U/L, an AST ([2]; Male NHP, 0.05 mg/kg, 2 days) of 95 U/L and an AST ([2]; Male NHP, 0.05 mg/kg, 4 days) of 69 U/L. For the same molecule, the AST ([2]; Male NHP, 0.05 mg/kg, 7 days) was 62 U/L, the AST ([2]; Male NHP, 0.05 mg/kg, 14 days) was 59 U/L and the AST ([2]; Male NHP, 0.05 mg/kg, Pre-dose) was 99 U/L. It also gave an AST ([2]; Male NHP, 0.5 mg/kg, 2 days) of 196 U/L, an AST ([2]; Male NHP, 0.5 mg/kg, 4 days) of 67 U/L and an AST ([2]; Male NHP, 0.5 mg/kg, 7 days) of 53 U/L. The AST ([2]; Male NHP, 0.5 mg/kg, 14 days) was 47 U/L, the AST ([2]; Male NHP, 0.5 mg/kg, Pre-dose) was 32 U/L and the “increase in neutrophil count above control” value (neutrophil count) was “four fold increase”. The “Average Protein Product” value (human G-CSF) was 19.8 Pg/mL, serum, the “innate immune recognition, cytokine production (IFN-alpha and others)” value (IFN-alpha) was “induced IFN-alpha, TNF-alpha and IP10” and the “G-CSF Serum Concentration 8-12 hours after administration” value (from here on “G-CSF Serum Concentration 8-12 hours”) (G-CSF [3]; IM, saline) was ~20 to 80 pg/mL. The “G-CSF Serum Concentration 8-12 hours” value (G-CSF [3]; IV (Lipoplex)) was ~30 pg/mL and the “G-CSF Serum Concentration 8-12 hours” value (G-CSF [3]; SC, saline) was ~10 to 40 pg/mL.
